Laboratory results from patent US20250361317A1 (Janssen / Centocor, published 2025).

Key:
[1] = molecular target: T1, T-cell receptor with TRBV19 (Vβ17) beta chain on human T cells (human); experiment: flow cytometry, percent TRBV19+ of live pan-T cells, Donor 1, 1 hour, 37 °C
T1 construct: whole, on cells; also called Vb17; TRBV19+ T cells

[2] = molecular target: T2, human EMR2 (ADGRE2, CD312) on cells (human, UniProt Q9UHX3 24-823); experiment: cell-based or functional assay
T2 sequence: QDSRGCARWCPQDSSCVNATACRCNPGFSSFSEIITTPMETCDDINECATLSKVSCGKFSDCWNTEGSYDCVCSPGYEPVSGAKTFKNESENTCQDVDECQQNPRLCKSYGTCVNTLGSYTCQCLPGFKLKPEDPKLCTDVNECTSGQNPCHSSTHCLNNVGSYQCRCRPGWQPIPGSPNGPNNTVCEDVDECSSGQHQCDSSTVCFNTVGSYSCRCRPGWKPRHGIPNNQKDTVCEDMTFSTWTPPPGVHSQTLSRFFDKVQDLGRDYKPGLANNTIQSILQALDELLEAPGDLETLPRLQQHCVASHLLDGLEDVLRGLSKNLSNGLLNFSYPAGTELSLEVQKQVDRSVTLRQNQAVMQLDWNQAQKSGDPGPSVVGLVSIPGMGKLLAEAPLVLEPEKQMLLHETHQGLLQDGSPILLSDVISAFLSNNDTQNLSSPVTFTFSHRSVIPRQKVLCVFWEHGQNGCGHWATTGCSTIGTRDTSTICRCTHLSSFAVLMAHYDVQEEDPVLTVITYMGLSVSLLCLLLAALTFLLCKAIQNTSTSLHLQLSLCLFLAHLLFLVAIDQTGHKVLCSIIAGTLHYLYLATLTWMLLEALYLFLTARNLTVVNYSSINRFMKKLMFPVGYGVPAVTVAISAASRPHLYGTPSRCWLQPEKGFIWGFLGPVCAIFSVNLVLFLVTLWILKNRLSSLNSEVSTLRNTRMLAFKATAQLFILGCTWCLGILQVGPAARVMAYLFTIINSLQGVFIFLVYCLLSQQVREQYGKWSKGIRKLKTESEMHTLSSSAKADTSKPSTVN

[3] = molecular target: T1, T-cell receptor with TRBV19 (Vβ17) beta …; experiment: cell-based or functional assay
[4] = molecular target: T2, human EMR2 (ADGRE2, CD312) on cells; experiment: cell-based or functional assay; remark: listed apart in the source
[5] = molecular target: T1, T-cell receptor with TRBV19 (Vβ17) beta …; experiment: cell-based or functional assay; remark: listed apart in the source
[6] = molecular target: T2, human EMR2 (ADGRE2, CD312) on cells; experiment: flow cytometry, median AF647 of live cells, OCI-AML5 WT cells, 1 hour at 37 C
[7] = molecular target: T3, EMR2W4, huEMR2 GAIN domain + GPS, D261-T540, with C-terminal Avi/6x His tag (human); experiment: SPR, EMR2 arm, forced degradation study: chemical oxidation
T3 construct: also called Human EMR2 GAIN domain protein
T3 chain: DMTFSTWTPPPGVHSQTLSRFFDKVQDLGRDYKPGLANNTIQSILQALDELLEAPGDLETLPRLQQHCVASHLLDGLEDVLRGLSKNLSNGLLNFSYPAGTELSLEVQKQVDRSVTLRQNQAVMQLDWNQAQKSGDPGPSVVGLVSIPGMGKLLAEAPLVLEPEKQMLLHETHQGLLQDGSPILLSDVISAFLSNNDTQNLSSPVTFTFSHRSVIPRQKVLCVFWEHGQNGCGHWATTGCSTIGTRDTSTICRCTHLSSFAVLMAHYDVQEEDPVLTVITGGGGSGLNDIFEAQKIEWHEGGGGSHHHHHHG

[8] = molecular target: T2, human EMR2 (ADGRE2, CD312) on cells; experiment: flow cytometry, median AF647 of live cells, MOLM 13 cells, 1 hour at 37 C
[9] = molecular target: T1, T-cell receptor with TRBV19 (Vβ17) beta …; experiment: flow cytometry, percent TRBV19+ of live pan-T cells, Donor 5, 1 hour, 37 °C
[10] = molecular target: T3, EMR2W4, huEMR2 GAIN domain + GPS, …; experiment: SPR, EMR2 arm, forced degradation study: Release
[11] = molecular target: T3, EMR2W4, huEMR2 GAIN domain + GPS, …; experiment: SPR, EMR2 arm, forced degradation study: pH 8.5
[12] = molecular target: T4, FcRn (cyno) (cynomolgus monkey, UniProt Q8SPV9 24-297; Q8SPW0 21-119); experiment: FcRn binding (cyno, pH 6)
T4 construct: also called neonatal Fc receptor, cynomolgus monkey

[13] = molecular target: T1, T-cell receptor with TRBV19 (Vβ17) beta …; experiment: flow cytometry, % TRBV19+ T cells of live human pan-T cells, 1 hour at 37 C
[14] = molecular target: T2, human EMR2 (ADGRE2, CD312) on cells; experiment: flow cytometry, OCI-AML3 cells, 1 hour at 37 °C; mean ± SEM
Experimental: After secondary detection with AF647-labeled material, the MFI signal was analyzed to generate an EC50 value. Curves are representative of 3 independent experiments.

[15] = molecular target: T3, EMR2W4, huEMR2 GAIN domain + GPS, …; experiment: SPR, EMR2 arm, forced degradation study: Physiological

T1 sequence (A0A075B6N1 22-114): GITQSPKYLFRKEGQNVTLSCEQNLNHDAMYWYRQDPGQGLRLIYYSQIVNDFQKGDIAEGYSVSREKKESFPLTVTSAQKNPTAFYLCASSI
T4 sequence (Q8SPV9 24-297 limits assumed, chain 1 of 2): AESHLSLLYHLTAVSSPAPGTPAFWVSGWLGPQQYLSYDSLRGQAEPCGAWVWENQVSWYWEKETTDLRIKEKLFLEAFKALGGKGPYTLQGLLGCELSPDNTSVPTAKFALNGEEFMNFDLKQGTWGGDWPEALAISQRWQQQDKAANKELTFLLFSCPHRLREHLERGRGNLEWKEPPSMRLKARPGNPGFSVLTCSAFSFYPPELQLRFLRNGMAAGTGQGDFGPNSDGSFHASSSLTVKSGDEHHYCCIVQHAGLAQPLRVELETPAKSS
T4 sequence (Q8SPW0 21-119 limits assumed, chain 2 of 2): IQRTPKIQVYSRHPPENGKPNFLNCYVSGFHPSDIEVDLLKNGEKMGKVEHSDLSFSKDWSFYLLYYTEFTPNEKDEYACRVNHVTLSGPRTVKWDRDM

B1: EMVBB8 (EMR2 x TRBV19 bispecific antibody) (bispecific antibody, human IgG1, kappa, L234A L235A)
heavy 1: DIQMTQSPSSLSASVGDRVTITCRSSQSLVHSNRNTYLHWYQQKPGCAPKLLIYKVSNRFSGVPSRFSGSGSGTDFTLTISSLQPEDFATYYCSQSTHVPFTFGQGTKLEIKGGGSGGSGGCPPCGGSGGQVQLQESGPGLVKPSETLSLTCTVSGYSITSGYFWNWIRQFPGKGLEWMGYISYDGSNNYNPSLKSRITISRDTSKNQFSLKLSSVTAADTAVYYCASPSPGTGYAVDYWGCGTTVTVSSEPKSSDKTHTCPPCPAPEAAGGPSVFLFPPKPKDTLMISRTPEVTCVVVSVSHEDPEVKFNWYVDGVEVHNAKTKPREEQYNSTYRVVSVLTVLHQDWLNGKEYKCKVSNKALPAPIEKTISKAKGQPREPQVYTLPPSREEMTKNQVSLWCLVKGFYPSDIAVEWESNGQPENNYKTTPPVLDSDGSFFLYSKLTVDKSRWQQGNVFSCSVMHEALHNHYTQKSLSLSPGK
heavy 2: EVQLVESGGGLVQPGGSLRLSCTASGFTFSRYSMNWVRQAPGEGLEWVSYISSSSNTIYYADSVKGRFTISRDNAKNSLYLQMNSLRDEDTAVYYCARDQGTPFDYWGQGTLVTVSSASTKGPSVFPLAPSSKSTSGGTAALGCLVKDYFPEPVTVSWNSGALTSGVHTFPAVLQSSGLYSLSSVVTVPSSSLGTQTYICNVNHKPSNTKVDKKVEPKSCDKTHTCPPCPAPEAAGGPSVFLFPPKPKDTLMISRTPEVTCVVVSVSHEDPEVKFNWYVDGVEVHNAKTKPREEQYNSTYRVVSVLTVLHQDWLNGKEYKCKVSNKALPAPIEKTISKAKGQPREPQVYTLPPSREEMTKNQVSLSCAVKGFYPSDIAVEWESNGQPENNYKTTPPVLDSDGSFFLVSKLTVDKSRWQQGNVFSCSVMHEALHNRFTQKSLSLSPGK
light: EIVLTQSPSSVSASIGDRVTITCRASQDISSWLGWYQQKPGKAPKLLIYAAISLQSGVPSRFSGSESGTDFTLTISSLQPEDFATYYCHQANSFPLTFGGGTKVEIKRTVAAPSVFIFPPSDEQLKSGTASVVCLLNNFYPREAKVQWKVDNALQSGNSQESVTEQDSKDSTYSLSSTLTLSKADYEKHKVYACEVTHQGLSSPVTKSFNRGEC
notes: also called the bispecific antibody
EC50 [1]: 7.8 nM
Cytotoxicity, EC50 (nM), 24 hours, PBMC + OCI-AML3 [2]: 0.02 nM
Cytotoxicity, EC50 (nM), 48 hours, PBMC + OCI-AML3 [2]: 0.01 nM
Cytotoxicity, EC50 (nM), 72 hours, PBMC + OCI-AML3 [2]: 0.004 nM
Cytotoxicity, EC50 (nM), 96 hours, PBMC + OCI-AML3 [2]: 0.003 nM
Cytotoxicity, EC50 (nM), 120 hours, PBMC + OCI-AML3 [2]: 0.004 nM
Pan-T-cell activation (CD25), EC50 (nM), 24 hours, PBMC + OCI-AML3 [3]: 0.02 nM
Pan-T-cell activation (CD25), EC50 (nM), 48 hours, PBMC + OCI-AML3 [3]: 0.01 nM
Pan-T-cell activation (CD25), EC50 (nM), 72 hours, PBMC + OCI-AML3 [3]: 0.01 nM
Pan-T-cell activation (CD25), EC50 (nM), 96 hours, PBMC + OCI-AML3 [3]: 0.01 nM
Pan-T-cell activation (CD25), EC50 (nM), 120 hours, PBMC + OCI-AML3 [3]: 0.01 nM
Cytotoxicity, EC50 (nM), 24 hours, PBMC + OCI-AML3 (Table 10) [4]: 0.02 nM
Cytotoxicity, EC50 (nM), 48 hours, PBMC + OCI-AML3 (Table 10) [4]: 0.01 nM
Cytotoxicity, EC50 (nM), 72 hours, PBMC + OCI-AML3 (Table 10) [4]: 0.004 nM
Cytotoxicity, EC50 (nM), 96 hours, PBMC + OCI-AML3 (Table 10) [4]: 0.003 nM
Cytotoxicity, EC50 (nM), 120 hours, PBMC + OCI-AML3 (Table 10) [4]: 0.004 nM
Pan-T-cell activation (CD25), EC50 (nM), 24 hours, PBMC + OCI-AML3 (Table 10) [5]: 0.02 nM
Pan-T-cell activation (CD25), EC50 (nM), 48 hours, PBMC + OCI-AML3 (Table 10) [5]: 0.01 nM
Pan-T-cell activation (CD25), EC50 (nM), 72 hours, PBMC + OCI-AML3 (Table 10) [5]: 0.01 nM
Pan-T-cell activation (CD25), EC50 (nM), 96 hours, PBMC + OCI-AML3 (Table 10) [5]: 0.01 nM
Pan-T-cell activation (CD25), EC50 (nM), 120 hours, PBMC + OCI-AML3 (Table 10) [5]: 0.01 nM
EC50 [6]: 13.4 nM
Max (MFI) [6]: 260000 MFI
Kd [7]: 0.2 nM
EC50 [8]: 16.4 nM
Max (MFI) [8]: 400000 MFI
EC50 [9]: 9.5 nM
Kd [10]: 0.19 nM
Kd [11]: 0.25 nM
Kd [12]: 454 nM
EC50 [13]: 13.1 nM
Max % TRV19+ [13]: 7.72%
EC50 [14]: 48 nM
Kd [15]: 0.21 nM
